Experimental data published in article PMC8563704, “Gain-of-Function Properties of a Dynamin 2 Mutant Implicated in Charcot-Marie-Tooth Disease” (Frontiers in Cellular Neuroscience, 2021).
Where a chain is given by its changes, count along the chain named. Numbers in names are those of the source.

B1: DNM2^WT-EGFP (enzyme, rat, UniProt P39052-1 1-870, looked up)
chain: MGNRGMEELIPLVNKLQDAFSSIGQSCHLDLPQIAVVGGQSAGKSSVLENFVGRDFLPRGSGIVTRRPLILQLIFSKTEYAEFLHCKSKKFTDFDEVRQEIEAETDRVTGTNKGISPVPINLRVYSPHVLNLTLIDLPGITKVPVGDQPPDIEYQIKDMILQFISRESSLILAVTPANMDLANSDALKLAKEVDPQGLRTIGVITKLDLMDEGTDARDVLENKLLPLRRGYIGVVNRSQKDIEGRKDIRAALAAERKFFLSHPAYRHMADRMGTPHLQKTLNQQLTNHIRESLPTLRSKLQSQLLSLEKEVEEYKNFRPDDPTRKTKALLQMVQQFGVDFEKRIEGSGDQVDTLELSGGARINRIFHERFPFELVKMEFDEKDLRREISYAIKNIHGVRTGLFTPDLAFEAIVKKQVVKLKEPCLKCVDLVIQELISTVRQCTSKLSSYPRLREETERIVTTYIREREGRTKDQILLLIDIEQSYINTNHEDFIGFANAQQRSTQLNKKRAIPNQGEILVIRRGWLTINNISLMKGGSKEYWFVLTAESLSWYKDEEEKEKKYMLPLDNLKIRDVEKGFMSNKHVFAIFNTEQRNVYKDLRQIELACDSQEDVDSWKASFLRAGVYPEKDQAENEDGAQENTFSMDPQLERQVETIRNLVDSYVAIINKSIRDLMPKTIMHLMINNTKAFIHHELLAYLYSSADQSSLMEESAEQAQRRDDMLRMYHALKEALNIIGDISTSTVSTPVPPPVDDTWLQNTSSHSPTPQRRPVSSVHPPGRPPAVRGPTPGPPLIPMPVGATSSFSAPPIPSRPGPQNVFANNDPFSAPPQIPSRPARIPPGIPPGVPSRRAPAAPSRPTIIRPAEPSLLD
notes: dynamin 2, rat, isoform 1 (ba, IIBA), UniProtKB P39052-1; The template cDNAs carried C-terminal His6 tags; also called EGFP-tagged DNM2^WT; source: expressed in U2OS cells (brightness analysis); NIH-3T3 cells (FLIM-FRET); not shown: EGFP, C-terminal, kept
B2: DNM2^K562E-EGFP (enzyme, rat, UniProt P39052-1 1-870, looked up)
chain: B1 chain with K562E
notes: dynamin 2, rat, isoform 1 (ba, IIBA), UniProtKB P39052-1, with the CMT-linked mutation K562E; The template cDNAs carried C-terminal His6 tags; also called EGFP-tagged DNM2^K562E; source: expressed in U2OS cells; not shown: EGFP, C-terminal, kept
B3: DNM2^A618T-EGFP (enzyme, rat, UniProt P39052-1 1-870, looked up)
chain: B1 chain with A618T
notes: dynamin 2, rat, isoform 1 (ba, IIBA), UniProtKB P39052-1, with the CNM-linked mutation A618T; The template cDNAs carried C-terminal His6 tags; also called EGFP-tagged DNM2^A618T; source: expressed in U2OS cells; not shown: EGFP, C-terminal, kept
B4: DNM2^ΔDEE-EGFP (enzyme, rat, UniProt P39052-1 1-870, looked up)
chain: MGNRGMEELIPLVNKLQDAFSSIGQSCHLDLPQIAVVGGQSAGKSSVLENFVGRDFLPRGSGIVTRRPLILQLIFSKTEYAEFLHCKSKKFTDFDEVRQEIEAETDRVTGTNKGISPVPINLRVYSPHVLNLTLIDLPGITKVPVGDQPPDIEYQIKDMILQFISRESSLILAVTPANMDLANSDALKLAKEVDPQGLRTIGVITKLDLMDEGTDARDVLENKLLPLRRGYIGVVNRSQKDIEGRKDIRAALAAERKFFLSHPAYRHMADRMGTPHLQKTLNQQLTNHIRESLPTLRSKLQSQLLSLEKEVEEYKNFRPDDPTRKTKALLQMVQQFGVDFEKRIEGSGDQVDTLELSGGARINRIFHERFPFELVKMEFDEKDLRREISYAIKNIHGVRTGLFTPDLAFEAIVKKQVVKLKEPCLKCVDLVIQELISTVRQCTSKLSSYPRLREETERIVTTYIREREGRTKDQILLLIDIEQSYINTNHEDFIGFANAQQRSTQLNKKRAIPNQGEILVIRRGWLTINNISLMKGGSKEYWFVLTAESLSWYKEKEKKYMLPLDNLKIRDVEKGFMSNKHVFAIFNTEQRNVYKDLRQIELACDSQEDVDSWKASFLRAGVYPEKDQAENEDGAQENTFSMDPQLERQVETIRNLVDSYVAIINKSIRDLMPKTIMHLMINNTKAFIHHELLAYLYSSADQSSLMEESAEQAQRRDDMLRMYHALKEALNIIGDISTSTVSTPVPPPVDDTWLQNTSSHSPTPQRRPVSSVHPPGRPPAVRGPTPGPPLIPMPVGATSSFSAPPIPSRPGPQNVFANNDPFSAPPQIPSRPARIPPGIPPGVPSRRAPAAPSRPTIIRPAEPSLLD
notes: dynamin 2, rat, isoform 1 (ba, IIBA), UniProtKB P39052-1, with the CMT-linked deletion of residues 555DEE557; Deletion introduced into the EGFP-tagged DNM2^WT template; also called EGFP-tagged DNM2^Δ ^DEE; source: expressed in U2OS cells (brightness analysis); NIH-3T3 cells (FLIM-FRET); not shown: EGFP, C-terminal, kept

Biological target: the molecule itself
Experiment: fluorescence fluctuation spectroscopy (brightness analysis); EGFP-tagged dynamins in the cytosol of living U2OS cells, as a function of concentration; two-photon excitation at 1,000 nm; brightness normalised to monomeric EGFP

Protein | stoichiometry N
B1 | ~4
B2 | ~4
B3 | 20 to 24
B4 | ~4
